Assay results published in patent publication US8318708B2, “Use of vitamin D receptor agonists, ligands, and precursors to treat pancreatic fibrosis” (Salk Institute for Biological Studies, priority 2007, dated 2012).

Columns and labels:
[1] = target: T1, VDR (Rattus norvegicus, UniProt P13053); experiment: Western blot of VDR in sinusoidal endothelial cells (SECs); type: cell-based; parameters: endogenous in cells; host or cells: primary rat hepatic stellate cells, sinusoidal endothelial cells, Kupffer cells and hepatocytes (Sprague-Dawley rats); settings: FIG. 10A
T1 sequence (P13053 1-423): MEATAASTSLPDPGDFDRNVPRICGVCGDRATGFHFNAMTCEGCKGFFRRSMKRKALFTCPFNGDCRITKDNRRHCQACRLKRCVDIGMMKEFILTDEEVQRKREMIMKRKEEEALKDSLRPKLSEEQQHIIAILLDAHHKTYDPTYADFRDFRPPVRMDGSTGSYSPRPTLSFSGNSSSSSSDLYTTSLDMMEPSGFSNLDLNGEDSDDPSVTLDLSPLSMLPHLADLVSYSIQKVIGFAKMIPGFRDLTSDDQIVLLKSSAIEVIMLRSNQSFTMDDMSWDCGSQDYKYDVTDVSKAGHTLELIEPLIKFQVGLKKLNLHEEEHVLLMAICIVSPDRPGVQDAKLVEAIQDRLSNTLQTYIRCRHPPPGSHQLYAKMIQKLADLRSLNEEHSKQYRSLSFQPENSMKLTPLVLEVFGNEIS

[2] = target: T1, VDR; experiment: Western blot of VDR in Kupffer cells (KCs); type: cell-based; parameters: endogenous in cells; host or cells: primary rat hepatic stellate cells, sinusoidal endothelial cells, Kupffer cells and hepatocytes (Sprague-Dawley rats); settings: FIG. 10B
[3] = target: T1, VDR; experiment: QPCR of VDR, Cyp24a1 and Hnf4α mRNA in primary rat hepatocytes; type: cell-based; parameters: endogenous in cells; host or cells: primary rat hepatic stellate cells, sinusoidal endothelial cells, Kupffer cells and hepatocytes (Sprague-Dawley rats); settings: 24 hours, TGF-β1 2 ng/mL, calcitriol 10 nM
[4] = test system: VDR; experiment: Western blot of VDR in hepatocytes treated with TGF-β1; type: cell-based, rat; human; settings: TGF-β1 2 ng/mL, 24 hours, FIG. 14
Method: Primary rat hepatocytes were isolated from Sprague-Dawley rats by collagenase in situ perfusion and plated on collagen in Williams E medium. The immortalized human hepatocyte (IHH) cell line was cultured in DMEM/F12+GlutaMax with insulin and dexamethasone. Primary rat hepatocytes or immortalized human hepatocytes were cultured for two days, then subsequently treated with TGF-β1 (2 ng/mL human, recombinant expressed in CHO cells from Sigma-Aldrich, # T7039) for 24 hours and compared to untreated controls. Protein was prepared from harvested cells and western blotting for VDR was accomplished using a specific anti-VDR antibody (anti-human VDR antibody from R&D systems CAT # PP-H4537-00 and rat anti-VDR monoclonal antibody from Chemocon International CAT # MAB1360). Recombinant human VDR protein was included as a positive control.

VDR protein expression [1]: induced
VDR protein expression [2]: induced
Cyp24a1 mRNA expression [3]: no effect
HNF4α expression [3]: some increase
VDR mRNA expression [3]: capable of inducing
Substance: TGF-β1: transforming growth factor beta 1; human recombinant from Sigma-Aldrich T7039
Increase in VDR expression (western blot) [4]: at least 5 fold
